Test [1] concerns the target Lyn11-FKBP12-sTEVp-CT (membrane-targeted FKBP12-TEVct of pBud-mem-sTEVp) (not stated | tobacco etch virus). As to conditions: scale: % of the median FRET efficiency of control cells.
Test [2] has as its target FKBP12-TEVct (118/119 sTEVp, C-terminal TEVp fragment fused to FKBP12) (not stated | tobacco etch virus). As to conditions: scale: % of the median FRET efficiency of control cells.
The target is the same in test [3]. As to conditions: scale: % of the median FRET efficiency of control cells. This is another data set of the same source.
Test [4] deals with C34V-FKBP12-TEVct (not stated | tobacco etch virus). As to conditions: scale: % of the median FRET efficiency of control cells.
The target in test [5] is Lyn11-FKBP12-sTEVp-CT (membrane-targeted FKBP12-TEVct of pBud-mem-sTEVp) (not stated | tobacco etch virus).
For test [6], the target named is FKBP12-TEVct (118/119 sTEVp, C-terminal TEVp fragment fused to FKBP12) (not stated | tobacco etch virus). As to conditions: scale: % of the median FRET efficiency of control cells. This is another data set of the same source.
Test [7] shares this target. As to conditions: scale: % of the median FRET efficiency of control cells. This is another data set of the same source.
The target of test [8] is Lyn11-FKBP12-sTEVp-CT (membrane-targeted FKBP12-TEVct of pBud-mem-sTEVp) (not stated | tobacco etch virus). As to conditions: scale: % of the median FRET efficiency of control cells. The source holds these as a separate data set.

One substance from article PMC2760398 can be followed below.

Turning to “FRB-TEVnt (118/119 sTEVp, N-terminal TEVp fragment fused to FRB) (from UniProt P42346 2018-2114)”, in test [1], the background TEVp activity: median FRET efficiency of membrane-targeted mem-C34V in HeLa cells, 300-1000 ng pBud-mem-sTEVp, without rapamycin (56% at 300 ng, 46% at 1000 ng) was 56 and the inducible TEVp activity: median FRET efficiency of membrane-targeted mem-C34V in HeLa cells, 300-1000 ng pBud-mem-sTEVp, rapamycin for 3 hours was less than 4. Besides, in test [2], the TEVp activity by fragment complementation: median FRET efficiency of the substrate C34V in HeLa cells, 125 ng sTEVp, rapamycin for 3 hours came out at 3 and the background TEVp activity: median FRET efficiency of the substrate C34V in HeLa cells, 125 ng sTEVp (optimum of a titration of the plasmid mass from 40 ng upwards), without rapamycin is 96. Also, in test [3], the TEVp activity by fragment complementation: median FRET efficiency of the substrate C34V in HeLa cells, 450 ng of each 118/119 sTEVp plasmid, 100 nM rapamycin for 3 hours at 37°C worked out at 3 and the background TEVp activity: median FRET efficiency of the substrate C34V in HeLa cells, 450 ng of each 118/119 sTEVp plasmid, without rapamycin was found to be 83. For the same substance, in test [4], the background TEVp activity in cis: median FRET efficiency of C34V-FKBP12-TEVct (300 ng) in HeLa cells with 25 ng FRB-TEVnt, without rapamycin (significant decrease at 25 ng FRB-TEVnt and above) was determined as 84; the inducible TEVp activity in cis: median FRET efficiency of C34V-FKBP12-TEVct (300 ng) in HeLa cells with 25 ng FRB-TEVnt, rapamycin for 3 hours (significant reduction also at 12 and 100 ng FRB-TEVnt) is 0. This substance also had an inducible TEVp activity: median degree of current inactivation 1-(I95ms/Imax) of EGFP-KV3.4 (1 µg RNA) in HEK-293 cells, 1-3 µg pBud-mem-sTEVp, rapamycin (0.31 at 1 µg, 0.53 at 3 µg) in test [5] of 0.53. In test [6], this substance had a background TEVp activity: median FRET efficiency of soluble C34V (100 ng) in HeLa cells, 300-1000 ng pBud-sol-sTEVp, without rapamycin (97% at 300 ng, 84% at 1000 ng) of 97 and an inducible TEVp activity: median FRET efficiency of soluble C34V (100 ng) in HeLa cells, 300-1000 ng pBud-sol-sTEVp, 100 nM rapamycin for 3 hours (9% at 300 ng, 3% at 1000 ng) of 9. In test [7], this substance returned a background TEVp activity: median FRET efficiency of membrane-targeted mem-C34V (100 ng) in HeLa cells, 300-1000 ng pBud-sol-sTEVp, without rapamycin (98% at 300 ng, 89% at 1000 ng) of 98 and an inducible TEVp activity: median FRET efficiency of membrane-targeted mem-C34V (100 ng) in HeLa cells, 300-1000 ng pBud-sol-sTEVp, rapamycin (7% at 300 ng, 3% at 1000 ng) of 7. In test [8], the background TEVp activity: median FRET efficiency of soluble C34V (100 ng) in HeLa cells, 300-1000 ng pBud-mem-sTEVp, without rapamycin (no significant difference from control) worked out at 100 and the inducible TEVp activity: median FRET efficiency of soluble C34V (100 ng) in HeLa cells, 300-1000 ng pBud-mem-sTEVp, rapamycin (30% at 300 ng, 12% at 1000 ng) was 30.
